Results published in PMC4100148.

How the values were obtained:
[1] = target: SelP-H (His-rich domain of selenoprotein P), purified (human) (UniProt P49908); experiment: ITC; MicroCal iTC-200, 25 °C, Tris buffer (50 mM, pH 7.4); 1.3 mM Tub-C titrated into 228 μM SelP-H, 20 injections of 2 μL; sequential binding model (n = 2)
[2] = target: CFP-SelP' (Sec to Cys mutant of selenoprotein P fused to enhanced cyan fluorescence protein) (human) (UniProt P49908); experiment: FRET or BRET; acceptor (receptor) photobleaching method; HEK293T cells co-transfected with CFP and YFP plasmids; ROI bleached at 515 nm, donor imaged at 405 nm excitation; E = 1 - I(prebleaching)/I(postbleaching)
[3] = target: CFP-SelP' (Sec to Cys mutant of selenoprotein P fused to enhanced cyan fluorescence protein) (human) (UniProt P49908); experiment: FRET or BRET; sensitized emission method; HEK293T cells co-transfected with CFP (donor) and YFP (receptor) plasmids, confocal microscope 48 h after transfection, excitation 405 and 515 nm
[4] = target: CFP-SelP-H (His-rich domain of selenoprotein P fused to CFP) (human) (UniProt P49908); experiment: FRET or BRET; acceptor (receptor) photobleaching method; HEK293T cells co-transfected with CFP and YFP plasmids; ROI bleached at 515 nm, donor imaged at 405 nm excitation; E = 1 - I(prebleaching)/I(postbleaching)

**Q.** “Tub-C (the last 42 residues of α-tubulin), purified (from UniProt Q71U36 1-451) (domain or fragment)” was tested. Which association constant K1 (sequential binding model, first site) [1] did it give?
**A.** The association constant K1 (sequential binding model, first site) was 2100 M⁻¹.

**Q.** And the association constant K2 (sequential binding model, second site) [1]?
**A.** The association constant K2 (sequential binding model, second site) was 1500 M⁻¹.

**Q.** And the dH1 (sequential binding model, first site) [1]?
**A.** Its dH1 (sequential binding model, first site) is -1.8 kcal/mol.

**Q.** What about the dH2 (sequential binding model, second site) [1] of the same substance?
**A.** Its dH2 (sequential binding model, second site) is 6.9 kcal/mol.

**Q.** What about the stoichiometry N [1] of the same substance?
**A.** Its stoichiometry N is 2.

**Q.** Which results are given for “YFP-Tub (α-tubulin fused to yellow fluorescence protein) (from UniProt Q71U36 1-451) (natural protein)”?
**A.** FRET efficiency E (average) [2]: 21.8%; FRET efficiency E (cell 1) [2]: 17.6%; FRET efficiency E (cell 2) [2]: 14.1%; FRET efficiency E (cell 3) [2]: 12.2%; FRET efficiency E (cell 4) [2]: 31.5%; FRET efficiency E (cell 5) [2]: 20%; FRET efficiency E (cell 6) [2]: 26.7%; FRET efficiency E (cell 7) [2]: 19.2%; FRET efficiency E (cell 8) [2]: 17.9%; FRET efficiency E (cell 9) [2]: 35.6%; FRET efficiency E (cell 10) [2]: 20.2%; FRET efficiency E (cell 11) [2]: 25%; FRET efficiency E (average) [3]: 21.3%; FRET efficiency E (cell 1) [3]: 19.7%; FRET efficiency E (cell 2) [3]: 18.7%; FRET efficiency E (cell 3) [3]: 32.6%; FRET efficiency E (cell 4) [3]: 17.7%; FRET efficiency E (cell 5) [3]: 18%

**Q.** With “YFP-Tub-C (C-terminal domain of α-tubulin, the last 42 residues, fused to YFP) (from UniProt Q71U36 1-451) (domain or fragment)” as the substance, how does the FRET efficiency E [4] read?
**A.** Its FRET efficiency E is 22.8%.
